The target in assay [1] is H-2K^b (mouse) (UniProt P01901). In words: flow cytometry, RMA-S transfectant Y317-2, 37° C. A general note: Flow cytometry measures light scatter and fluorescence of single cells or particles in a stream.
Assay [2] addresses K^b/OVA257-264 complex on Y317-2 cells (H-2K^b with OVA257-264 linked to human membranal β2m) (mouse; chicken; human). Description: flow cytometry, RMA-S transfectant Y317-2, 37° C.
Assay [3] addresses H-2K^k (mouse) (UniProt P04223). In words: flow cytometry with QIFIKIT, parental MD45 cells.
UniProt P04223, sequence (P04223 22-369 limits assumed): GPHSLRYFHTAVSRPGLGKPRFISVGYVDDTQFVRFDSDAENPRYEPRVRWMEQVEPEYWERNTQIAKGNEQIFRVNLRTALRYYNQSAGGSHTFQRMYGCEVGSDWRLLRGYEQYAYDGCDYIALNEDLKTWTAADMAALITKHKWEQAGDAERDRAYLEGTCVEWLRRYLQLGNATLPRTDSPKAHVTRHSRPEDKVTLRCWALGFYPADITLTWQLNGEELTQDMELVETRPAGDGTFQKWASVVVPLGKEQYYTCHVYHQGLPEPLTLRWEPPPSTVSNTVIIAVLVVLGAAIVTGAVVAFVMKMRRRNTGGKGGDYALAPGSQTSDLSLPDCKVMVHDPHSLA
The target is the same in assay [4]. In words: flow cytometry with QIFIKIT, MD45 transfectant 425-44.
Assay [5] shares this target. In words: flow cytometry with QIFIKIT, MD45 transfectant 427-24.
In assay [6] the target is hβ2m-CD40 (human β2m fused through a bridge to the mouse CD40 transmembrane and cytoplasmic region) (human; mouse) (UniProt P61769). In words: cell-based or functional assay.
Assay [7] concerns the target NP50-57 dcβ2m (NP50-57 - linker - human β2m - bridge - mouse CD3 ζ) (influenza virus; human; mouse) (UniProt P61769). Description: flow cytometry with QIFIKIT, MD45 transfectant 425-44.
The target in assay [8] is Ha255-262 dcβ2m (Ha255-262 - linker - human β2m - bridge - mouse CD3 ζ) (influenza virus; human; mouse) (UniProt P61769). In words: flow cytometry with QIFIKIT, MD45 transfectant 427-24.
For assay [9], the target named is H-2K^b (mouse) (UniProt P01901). In words: derived from MFI of 25D-1.16 and anti-H-2K^b staining of Y317-2 cells at 37° C.
Another assay addresses H-2K^d (mouse) (UniProt P01902). Description: cell-based or functional assay.
UniProt P01902, sequence (P01902 22-305 limits assumed): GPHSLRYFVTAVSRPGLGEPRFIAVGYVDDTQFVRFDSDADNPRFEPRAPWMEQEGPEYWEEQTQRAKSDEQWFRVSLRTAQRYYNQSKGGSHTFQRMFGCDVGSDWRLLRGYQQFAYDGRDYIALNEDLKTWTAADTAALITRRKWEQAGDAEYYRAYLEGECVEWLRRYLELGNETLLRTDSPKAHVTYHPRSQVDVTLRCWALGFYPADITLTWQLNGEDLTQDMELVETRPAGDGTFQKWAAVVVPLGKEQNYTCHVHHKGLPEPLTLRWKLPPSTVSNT
Assay [10] addresses H-2K^k (mouse) (UniProt P04223). Description: derived from QIFIKIT flow cytometry with Fab13.4.1 and AF3-12.1 on 427-24 cells.

Consider seven substances from patent publication US20080286312A1.

UniProt P01901, sequence (P01901 22-369 limits assumed): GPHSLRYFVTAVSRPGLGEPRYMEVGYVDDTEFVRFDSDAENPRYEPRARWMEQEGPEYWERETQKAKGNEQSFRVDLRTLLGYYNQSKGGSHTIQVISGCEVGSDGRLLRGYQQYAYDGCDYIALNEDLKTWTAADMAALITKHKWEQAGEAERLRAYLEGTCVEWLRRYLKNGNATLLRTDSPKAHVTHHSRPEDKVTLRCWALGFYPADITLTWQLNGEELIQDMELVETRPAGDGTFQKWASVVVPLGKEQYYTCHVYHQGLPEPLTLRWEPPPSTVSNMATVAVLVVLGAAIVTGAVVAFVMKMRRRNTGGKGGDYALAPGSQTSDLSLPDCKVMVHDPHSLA

With 20-8-4 anti-H-2K^b mAb (antibody), the mean fluorescence intensity with H-2K^b (mouse) [1] amounted to 122 MFI. “25-D1.16 mAb specific to the complex H-2K^b/OVA257-264 (antibody)” displayed a mean fluorescence intensity in assay [2] of 69.7 MFI.

With AF3-12.1 anti-K^k mAb (antibody), the quantity of surface antigen (QIFIKIT) was determined as 10900 with H-2K^k (mouse) [3], 37600 in the assay with H-2K^k (mouse) [4] and 28600 in the assay with H-2K^k (mouse) [5].

BM-63 anti-human β2m mAb (antibody): the decrease of total cellular IκBα (immunoblot) in A20 transfectant in assay [6] worked out at 39%. In addition, the quantity of surface antigen (QIFIKIT) in [7] came to 467000; in assay [8] it was 173000. Regarding “OVA257-264 dcβ2m with human β2m and H-2K^b anchor (from UniProt P61769 21-119)”, in the assay with H-2K^b (mouse) [9], the H-2K^b occupancy worked out at 57%. For the substance “hβ2m-CD40 (human β2m fused through a bridge to the mouse CD40 transmembrane and cytoplasmic region) (from UniProt P61769 21-119; P27512 194-289)”, the reduction of total cellular IκBα (immunoblot) in A20 transfectant after incubation with an anti-H-2 K^d mAb in the assay with H-2K^d (mouse) is 71%. As for “Ha255-262 dcβ2m (Ha255-262 - linker - human β2m - bridge - mouse CD3 ζ) (from UniProt P61769 21-119; P24161 31-164)”, the occupation of surface H-2K^k molecules in the assay with H-2K^k (mouse) [10] was 20%.
